The source of these data is the supplement of paper PMC10567573.

To fix the notation:
B1: SNAP91 (parent)
chain: FAQPMMRPPFGAAAVPGTQLSPSP
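Note: lentivirally expressed fusions sorted by FACS into six bins by GFP to DsRed ratio, PSI derived from sequencing read proportions per bin multiplied by bin number.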

The variants in this data set derive from B1. The data set can be described thus: protein stability index of a GFP-peptide fusion (GPS, HEK-293T) (PSI 1-6); higher = more stable. The note with it: c terminus: a fixed tail appended.
With FAQPDMRPPFGAAAVPGTQLSPSP [M5D], the protein stability index worked out at 3.52.

In the case of FAQPCMRPPFGAAAVPGTQLSPSP [M5C], the protein stability index was found to be 2.68.

With FAQPAMRPPFGAAAVPGTQLSPSP [M5A], the protein stability index came out at 3.49.

With FAQPYMRPPFGAAAVPGTQLSPSP [M5Y], the protein stability index was determined as 2.64.

Turning to FAQPRMRPPFGAAAVPGTQLSPSP [M5R], the protein stability index was found to be 4.15.

As to FAQPFMRPPFGAAAVPGTQLSPSP [M5F], the protein stability index is 2.54.

With FAQPKMRPPFGAAAVPGTQLSPSP [M5K], the protein stability index amounted to 2.61.

FAQPQMRPPFGAAAVPGTQLSPSP [M5Q]: the protein stability index is 3.48.

On to FAQPIMRPPFGAAAVPGTQLSPSP [M5I], for which the protein stability index turned out to be 2.59.

FAQPVMRPPFGAAAVPGTQLSPSP [M5V]: the protein stability index is 3.01.

Consider FAQPNMRPPFGAAAVPGTQLSPSP [M5N], for which the protein stability index worked out at 3.22.

Consider FAQPEMRPPFGAAAVPGTQLSPSP [M5E], for which the protein stability index was 3.61.

As for FAQPHMRPPFGAAAVPGTQLSPSP [M5H], the protein stability index worked out at 2.86.

Take FAQPGMRPPFGAAAVPGTQLSPSP [M5G]: the protein stability index came out at 2.77.

On to FAQPSMRPPFGAAAVPGTQLSPSP [M5S], for which the protein stability index was 3.31.

Take FAQPTMRPPFGAAAVPGTQLSPSP [M5T]: the protein stability index came to 3.07.

With FAQPWMRPPFGAAAVPGTQLSPSP [M5W], the protein stability index was determined as 1.96.

Turning to FAQPLMRPPFGAAAVPGTQLSPSP [M5L], the protein stability index stood at 3.4.

Take FAQPPMRPPFGAAAVPGTQLSPSP [M5P]: the protein stability index worked out at 4.01.

For the variant YAQPMMRPPFGAAAVPGTQLSPSP [F1Y], the protein stability index stood at 2.24.

Take QAQPMMRPPFGAAAVPGTQLSPSP [F1Q]: the protein stability index is 4.66.

RAQPMMRPPFGAAAVPGTQLSPSP [F1R]: the protein stability index came to 4.19.

In the case of TAQPMMRPPFGAAAVPGTQLSPSP [F1T], the protein stability index was 4.53.

As to NAQPMMRPPFGAAAVPGTQLSPSP [F1N], the protein stability index worked out at 4.53.

Turning to AAQPMMRPPFGAAAVPGTQLSPSP [F1A], the protein stability index is 4.67.

For the variant VAQPMMRPPFGAAAVPGTQLSPSP [F1V], the protein stability index is 4.42.

Take CAQPMMRPPFGAAAVPGTQLSPSP [F1C]: the protein stability index worked out at 3.3.

For KAQPMMRPPFGAAAVPGTQLSPSP [F1K], the protein stability index came to 4.28.

Turning to MAQPMMRPPFGAAAVPGTQLSPSP [F1M], the protein stability index stood at 4.26.

WAQPMMRPPFGAAAVPGTQLSPSP [F1W]: the protein stability index was found to be 3.41.

Regarding HAQPMMRPPFGAAAVPGTQLSPSP [F1H], the protein stability index was determined as 4.02.

As for EAQPMMRPPFGAAAVPGTQLSPSP [F1E], the protein stability index is 4.68.

In the case of PAQPMMRPPFGAAAVPGTQLSPSP [F1P], the protein stability index came to 4.75.

Regarding LAQPMMRPPFGAAAVPGTQLSPSP [F1L], the protein stability index amounted to 3.59.

With GAQPMMRPPFGAAAVPGTQLSPSP [F1G], the protein stability index turned out to be 4.5.

For IAQPMMRPPFGAAAVPGTQLSPSP [F1I], the protein stability index is 4.02.

On to SAQPMMRPPFGAAAVPGTQLSPSP [F1S], for which the protein stability index turned out to be 4.11.

With DAQPMMRPPFGAAAVPGTQLSPSP [F1D], the protein stability index is 4.55.

For the variant FAFPMMRPPFGAAAVPGTQLSPSP [Q3F], the protein stability index was 3.04.

Consider FAMPMMRPPFGAAAVPGTQLSPSP [Q3M], for which the protein stability index was found to be 2.93.

As to FAGPMMRPPFGAAAVPGTQLSPSP [Q3G], the protein stability index came to 2.8.

With FAHPMMRPPFGAAAVPGTQLSPSP [Q3H], the protein stability index stood at 2.86.

For the variant FARPMMRPPFGAAAVPGTQLSPSP [Q3R], the protein stability index was 3.42.

With FAEPMMRPPFGAAAVPGTQLSPSP [Q3E], the protein stability index amounted to 2.17.

FANPMMRPPFGAAAVPGTQLSPSP [Q3N]: the protein stability index came to 2.98.

Regarding FADPMMRPPFGAAAVPGTQLSPSP [Q3D], the protein stability index turned out to be 2.12.

With FALPMMRPPFGAAAVPGTQLSPSP [Q3L], the protein stability index worked out at 3.01.

On to FAKPMMRPPFGAAAVPGTQLSPSP [Q3K], for which the protein stability index turned out to be 3.32.

Regarding FACPMMRPPFGAAAVPGTQLSPSP [Q3C], the protein stability index worked out at 2.58.

As to FAWPMMRPPFGAAAVPGTQLSPSP [Q3W], the protein stability index turned out to be 2.32.

For the variant FATPMMRPPFGAAAVPGTQLSPSP [Q3T], the protein stability index came out at 3.56.

Turning to FAYPMMRPPFGAAAVPGTQLSPSP [Q3Y], the protein stability index was found to be 1.82.

On to FAIPMMRPPFGAAAVPGTQLSPSP [Q3I], for which the protein stability index worked out at 2.55.

Take FAVPMMRPPFGAAAVPGTQLSPSP [Q3V]: the protein stability index turned out to be 3.45.

As to FAAPMMRPPFGAAAVPGTQLSPSP [Q3A], the protein stability index came out at 3.3.

For the variant FASPMMRPPFGAAAVPGTQLSPSP [Q3S], the protein stability index came to 3.61.

Regarding FAQFMMRPPFGAAAVPGTQLSPSP [P4F], the protein stability index was 1.44.

For the variant FAQTMMRPPFGAAAVPGTQLSPSP [P4T], the protein stability index was determined as 2.53.

Consider FAQLMMRPPFGAAAVPGTQLSPSP [P4L], for which the protein stability index was determined as 1.65.

Turning to FAQIMMRPPFGAAAVPGTQLSPSP [P4I], the protein stability index is 1.96.

As for FAQEMMRPPFGAAAVPGTQLSPSP [P4E], the protein stability index came out at 2.77.

Consider FAQCMMRPPFGAAAVPGTQLSPSP [P4C], for which the protein stability index was found to be 2.48.

On to FAQNMMRPPFGAAAVPGTQLSPSP [P4N], for which the protein stability index came to 2.36.

Consider FAQRMMRPPFGAAAVPGTQLSPSP [P4R], for which the protein stability index is 2.54.

As for FAQHMMRPPFGAAAVPGTQLSPSP [P4H], the protein stability index came to 2.75.

On to FAQVMMRPPFGAAAVPGTQLSPSP [P4V], for which the protein stability index was found to be 2.33.

Regarding FAQGMMRPPFGAAAVPGTQLSPSP [P4G], the protein stability index is 2.01.

For the variant FAQSMMRPPFGAAAVPGTQLSPSP [P4S], the protein stability index came to 2.26.

Consider FAQYMMRPPFGAAAVPGTQLSPSP [P4Y], for which the protein stability index came to 1.83.

FAQQMMRPPFGAAAVPGTQLSPSP [P4Q]: the protein stability index came out at 2.02.

FAQWMMRPPFGAAAVPGTQLSPSP [P4W]: the protein stability index amounted to 1.83.

Consider FAQMMMRPPFGAAAVPGTQLSPSP [P4M], for which the protein stability index was 1.61.

Take FAQKMMRPPFGAAAVPGTQLSPSP [P4K]: the protein stability index amounted to 1.97.

As to FAQDMMRPPFGAAAVPGTQLSPSP [P4D], the protein stability index was found to be 2.7.

As for FAQAMMRPPFGAAAVPGTQLSPSP [P4A], the protein stability index amounted to 2.05.

In the case of FAQPMARPPFGAAAVPGTQLSPSP [M6A], the protein stability index is 2.89.

As to FAQPMCRPPFGAAAVPGTQLSPSP [M6C], the protein stability index came out at 2.76.

As for FAQPMDRPPFGAAAVPGTQLSPSP [M6D], the protein stability index was 3.46.

For the variant FAQPMFRPPFGAAAVPGTQLSPSP [M6F], the protein stability index came out at 3.14.

For FAQPMERPPFGAAAVPGTQLSPSP [M6E], the protein stability index worked out at 3.6.

Take FPQPMMRPPFGAAAVPGTQLSPSP [A2P]: the protein stability index came out at 3.72.

As to FQQPMMRPPFGAAAVPGTQLSPSP [A2Q], the protein stability index is 3.33.

Turning to FMQPMMRPPFGAAAVPGTQLSPSP [A2M], the protein stability index came out at 3.62.

As for FVQPMMRPPFGAAAVPGTQLSPSP [A2V], the protein stability index worked out at 1.71.

Consider FWQPMMRPPFGAAAVPGTQLSPSP [A2W], for which the protein stability index stood at 2.45.

For FRQPMMRPPFGAAAVPGTQLSPSP [A2R], the protein stability index is 3.85.

As for FCQPMMRPPFGAAAVPGTQLSPSP [A2C], the protein stability index stood at 2.73.

Regarding FTQPMMRPPFGAAAVPGTQLSPSP [A2T], the protein stability index was 3.09.

Take FEQPMMRPPFGAAAVPGTQLSPSP [A2E]: the protein stability index worked out at 4.45.

Take FYQPMMRPPFGAAAVPGTQLSPSP [A2Y]: the protein stability index was 3.56.

Consider FIQPMMRPPFGAAAVPGTQLSPSP [A2I], for which the protein stability index came out at 1.94.

Take FNQPMMRPPFGAAAVPGTQLSPSP [A2N]: the protein stability index was 4.59.

Regarding FHQPMMRPPFGAAAVPGTQLSPSP [A2H], the protein stability index came out at 2.27.

For FGQPMMRPPFGAAAVPGTQLSPSP [A2G], the protein stability index was 3.52.

With FKQPMMRPPFGAAAVPGTQLSPSP [A2K], the protein stability index was found to be 3.84.
